Assay results taken from the DeepSol protein solubility set.

Assay: soluble on expression in E. coli; label from the status in PepcDB or PDB records

Sequence | soluble on expression in E. coli
MSLSKASLQEMAVKYIAEQIGEHDSEQIHLSALPLDSRIPDRACSTTPDIISSSEPPFNRQITIQVKCDDPQSWAQYVHIKVLKMAPVVVTTDNIARGEVITSAHITVEMKPTHFVRVQYQDDPKALIGSRSKRNIREGMPILLNQICMVCKGDAINIYASTKGLQIKTTGVALEDGTLGEQILVENKKTGKVLNARVDGVESVQVNIEGHHHHHH | not soluble
GHMLDVAPPVITPRGTKIEPSAGAPFEAVRVARDVLHTSRTAALATLDPVSGYPYTTATNIGIEPDGTPFFFAAGLTLHARNMETDARISVTLAPFGKGDALTLPRLTLVGRADRIGPDEVPLAIARYIARYPKAKLYLSLPDTRLYRLRTEGVQINGGPARNASNITPADLRTDLSGAEELMAAAESEATRLNAIKGEASRLAVLAGAKTGRWKITSIDPDGIDLASASDLARLWFAERVETLKQFEKALAQLLKGS | soluble
MGSDKIHHHHHHMYVENACYQKAILPEHVGNALIESLPKKLTDEELVDKLANYPKCLTEDTQNDPEIRAEYLTRIKRLRQPQLVYFDVFRAVEIAIKDGYSAKNPLSPTTMNYLHYSLEDRPIIEPNTGFFKPKGCGITIIGESGVGKTSMLEQVLSIYPDVIKHQSYSGMSLPLTQVVWLKVDCPDDSSVKGLCHRILDEIDRKLDIKDTKPQNTIALLIKQIEAKMKSNYLGILVIDEMQNLNTAKAGGAERLLGFLHNLMNNLGIPILFCANPPFDKLLSKTLKAARRAESGGYFDIGLLKNSEDEWGLFVDELWKLQWTNVQTPLTQDLSDRLFNLSVGNMDLAVRIFYASQRAVIGSLNERITTDVLDKGASIAIRASKSTTDELRLSLLKRKNESKKETPNNEASEEAKVITESKGKFVTIPGDLSRPHHPEFAERITELQYEDDLHALIEDPALIQRASEEEHPLDMLKSAGLFCEDPLKTFG | not soluble
MSLDSLYVNDFYKGDRNITKFLKLELEMYDWKLMILHYLGLDHIGHVEGPFSDKVPGKLKEMDKVIKTIYHTMDKWKYYTKPLLVITGDHGMRDSGGHGGSSHAETIVPVVIVSDQCAKSEETFLQIDEGHHHHHH | not soluble
GPLGSMPYSDAKAMLDEVAKIRELGVQRVTRIENLENAKKLWDNANSMLEKGNISGYLKAANELHKFMKEKNLKEDDLRPELSDKTISPKGYAILQSLWGAASDYSRAAATLTESTVEPGLVSAVNKMSAFFMDCKLSPNERATPDPDFKVGKSKILVGIMQFIKDVADPTSKIWMHNTKALMNHKIAAIQKLERSNNVNDETLESVLSSKGENLSEYLSYKYATKDEGREHRYTASTENFKNVKEKYQQMRGDALKTEILADFKDKLAEATDEQSLKQIVAELKSKDEYRILAKGQGLTTQLLGLKTSSVSSFEKMVEETRESIKSQERQTIKIK | soluble
MGSSHHHHHHSSGLVPRGSHMKLYIIGAGPGDPDLITVKGLKLLQQADVVLYADSLVSQDLIAKSKPGAEVLKTAGMHLEEMVGTMLDRMREGKMVVRVHTGDPAMYGAIMEQMVLLKREGVDIEIVPGVTSVFAAAAAAEAELTIPDLTQTVILTRAEGRTPVPEFEKLTDLAKHKCTIALFLSSTLTKKVMKEFINAGWSEDTPVVVVYKATWPDEKIVRTTVKDLDDAMRTNGIRKQAMILAGWALDPATPWLSGLGENPAIRAMFVAHLHQALNMAVEEAA | soluble
MAVTVSVAQATPAPFDMAARFKALYTREWRWRQAEFPGVVERSSQPQCVDHLPKVDLARQNKRTAYWQQVLEELKTIDPVRLSSKDQINYQVYRQQIEVLLDGQRFRSWEMSFNSDTAFWSDLSFSARDRFRTSEDYRCYLGVLADIPRYFNEQIVNLRQGLARGFAQPRVTLEGRDQVIAEVAGAAGEDNLFYIPFKQMPTMMSAGEQARLRAQVLHLIVDQVVPAYRHLLAFMREEYLPKARTVLAAESLPGGVAYYRAKIFEYTTLDLDPEAIYQIGVAEVAKLRQQMDQVIVDSGFKTSPDQQIFSAFLRYLRTDPQFYPKTPEALLKEAAWIAKRVDAKIGLYIGRLPRRRFAIEPVPADVAPYYTSGRGGPGIYFVNTYDLPSRPLYNLTALTLHESSPGHALQMPLAEEAKEVPEFRRYAFISAYGEGWAVYAEYLGQEMGLYDTPYDRFGYLSYQIWRACRLVIDTGIHHKGWTRAQAQAYLRDNTALSEREITTEVDRYISWPGQALSYYLGELKILELRHKAEAALGAKFDIRHFHDAVLGLGSVPLQVLEARIDRFIAE | not soluble
MSLNNQANKLRNLMSQNGTKKSQNTHFIAITSGKGGVGKSTISANLANVLANNGYKVGLFDADIGLANLDVILNVRIQKNLLHVLRGECSLEDILIEVKPNLWLIPGESGDEILKYNDKNIYERFLNQASILDELDFLIIDTGAGIGGNILNFLEMADEVIVVTVPDPAAITDAYATIKTTSKTKENLLMLFNVVKNENEALKVFENIKKVADANIKNPLNLEFLGHLSASKDVSGSIKKRTLFSDENTASSDEIKALASKLLYRLERKVLDNVSNRSFSSFFRKIIEREGHHHHHH | soluble
MAPSLDSISHSFANGVASAKQAVNGASTNLAVAGSHLPTTQVTQVDIVEKMLAAPTDSTLELDGYSLNLGDVVSAARKGRPVRVKDSDEIRSKIDKSVEFLRSQLSMSVYGVTTGFGGSADTRTEDAISLQKALLEHQLCGVLPSSFDSFRLGRGLENSLPLEVVRGAMTIRVNSLTRGHSAVRLVVLEALTNFLNHGITPIVPLRGTISASGDLSPLSYIAAAISGHPDSKVHVVHEGKEKILYAREAMALFNLEPVVLGPKEGLGLVNGTAVSASMATLALHDAHMLSLLSQSLTAMTVEAMVGHAGSFHPFLHDVTRPHPTQIEVAGNIRKLLEGSRFAVHHEEEVKVKDDEGILRQDRYPLRTSPQWLGPLVSDLIHAHAVLTIEAGQSTTDNPLIDVENKTSHHGGNFQAAAVANTMEKTRLGLAQIGKLNFTQLTEMLNAGMNRGLPSCLAAEDPSLSYHCKGLDIAAAAYTSELGHLANPVTTHVQPAEMANQAVNSLALISARRTTESNDVLSLLLATHLYCVLQAIDLRAIEFEFKKQFGPAIVSLIDQHFGSAMTGSNLRDELVEKVNKTLAKRLEQTNSYDLVPRWHDAFSFAAGTVVEVLSSTSLSLAAVNAWKVAAAESAISLTRQVRETFWSAASTSSPALSYLSPRTQILYAFVREELGVKARRGDVFLGKQEVTIGSNVSKIYEAIKSGRINNVLLKMLA | soluble
GMNSGKVAFIVTKNGKRICDVIDECSQRGSTILKAQGGYKQDDIQVVMCACNSKEMYQVRKSVKDTDPDSFIVVVESHEVHGEGFKMTNIGEAEN | not soluble
MKKLAVKALLFIMGTMLYSAPTYEYRRELREGARGKWTNLRQHLNSGTRLEKELTKVDKQIDKKVNEIQEIEDLLFRIEQYKAANNIR | not soluble
VGGQVRIAANTSSITQFLPEDLAGFMQRHPAVRIHLEEQNSSDIVTAVAENRADVGIFADRTPAAGLTTVPYRLDELVLITPPRHPLAARAQVAFADTLDCDYVGLPPATSLATRLADESARLDKSIRLRIQVRSFDAICRMVVAT | not soluble
MGSDKIHHHHHHMTLQFLGAAREVTGSCHLVTVAGKHLLLDCGLIQGGKADELRNHEPFVFDPQTIVAVVLSHAHIDHSGRLPLLVKAGFDGPIYTHKATAELCAIMLKDAAMLQVRDTERTNKKRAKHDLAPLEPLFTVEDAEQAISQFVSLEYGQVTRVIPHVDICLSDAGHILGSALVELWLGEGKSQKKIVFSGDLGRAGMPILQNPTLVDTADLVLMESTYGNRFHRSWTDTLAELKDIFAKTVNESQGNILLPAFSVGRAQELLYLFHLYAKEWDLGRWKICLDSPMAIEATRVYVNNYPLMDEDFKRFTRQHPGQHPLLSNVEFIQTTEESIALNEVHKGLIIIAGSGMCNGGRIRSHLEHNLWRSECDVIICGFQALGTPGRALVDGAKELTIHGNSVNVAAKLHTVGGLSAHADQAELLRWYRHFEEQPPLVLVHGEPEAQQGLVAVMNQDPKTKPKALAIATRGDMLDLTALPKLVWVTA | not soluble
MAHHHHHHMRRVERSSRGEGEDTLATGEANVRTDTTVDVLRRASRHAQGAIETSWMTTRRLQVQGEQLEEIDRALDKMEHDLGVGDDALRRMTWTGRVKRWFTSRRKQPSDGVESSTSSSVPSSSLPIKPQGLREKNQQREGTRGSKRDDVIGCGSSTSHIAMEEEKLLDALLGDVHAMREQATLQGAMLTEHNRRLDVIATKTDAVHNHVNRTKQKVEKML | soluble
MELISIIVPVYNGEIYIGRCLDSILEQTYQNLEIIIIDDGSSDRTGDICEKYFLEDRRIKYFYQENRGQSVARNNGVLRCTGDWIAFLDSDDVYLPYSIEVMYNIQKATNADIVLTSIGNFNNTYNTSINSQYLKEIKLYTLEVALEEMYYGKTYGVSPLAKLYPRSNLLSNPYPEGKIHEDMDTTFKLISCASKIAVCDIVTAVVYFSDNSTTRTKFNERMLYFFEAIQNNIVFINLNFPHNTSLISAVIYNEVFGGIDICGKMIDFKLYDTVDYYRKKYRKYFKTILFNNRISVKEKVKYILFISSIRYFTIVRKIYNLRLSRNGLEHHHHHH | not soluble
MRINKPFSDDSNTVVFVSSKTYGVKEEAAHNPNVEFGVVLPTDFPAFNRALVQFLKRKKTKLNINLDSLIELYKKNENSGCFHTAIKTVITSVTFCETTPFTMKTKPEKNVEVAVQCAVEYHNLVKEYET | not soluble
STNNNPAPLLGFRIAHLLEQEPDTKDLTINVKTEILKHEFGPIKSSFSFSPHKFFEEDVKKQELYFFLIAVGIEEDDAKLMMTDMIFYVLGNIDELRGVLTLLLKVQFPSFEPIEEH | soluble
KGSTFIKAQDKYEVNILYLISHALVETGNGQSDLSKGIKEGDHHYYNFFGIGAFDEDAVKTGKSFAKQKKWTTPEKAIMGGAWFVRYHYFKNNQLSLYQMRWNPQNPGQHQYASDIQWANNIADLMEKYYDKYGIKKDHIRKKYYK | not soluble
MRPSAPAISRQTLLDEPRPGSLTIGYEPSEEAQPTENPPRFSWLPDIDDGARYVLRISTDPGFTDKKTLVFEDLAWNFFTPDEALPDGHYHWCYALWDQKSATAHSNWSTVRSFEISEALPKTPLPGRSARHAAAQTSHPRLWLNSEQLSAFADAVAKDPNHCGWAEFYEKSVEPWLERPVMPEPQPYPNNTRVATLWRQMYIDCQEVIYAIRHLAIAGRVLGRDDLLDASRKWLLAVAAWDTKGATSRAYNDEAGFRVVVALAWGYDWLYDHLSEDERRTVRSVLLERTREVADHVIAHARIHVFPYDSHAVRSLSAVLTPACIALQGESDEAGEWLDYTVEFLATLYSPWAGTDGGWAEGPHYWMTGMAYLIEAANLIRSYIGYDLYQRPFFQNTGRFPLYTKAPGTRRANFGDDSTLGDLPGLKLGYNVRQFAGVTGNGHYQWYFDHIKADATGTEMAFYNYGWWDLNFDDLVYRHDYPQVEAVSPADLPALAVFDDIGWATIQKDMEDPDRHLQFVFKSSPYGSLSHSHGDQNAFVLYAHGEDLAIQSGYYVAFNSQMHLNWRRQTRSKNAVLIGGKGQYAEKDKALARRAAGRIVSVEEQPGHVRIVGDATAAYQVANPLVQKVLRETHFVNDSYFVIVDEVECSEPQELQWLCHTLGAPQTGRSSFRYNGRKAGFYGQFVYSSGGTPQISAVEGFPDIDPKEFEGLDIHHHVCATVPAATRHRLVTLLVPYSLKEPKRIFSFIDDQGFSTDIYFSDVDDERFKLSLPKQF | soluble
MEDKRLIREKILRNLNSIDKVEHRERSIKLAEKLFLLPEWENAKVVGITLARHPEIETEAIILQAKKEGKTILIPKTYYPSRKMEFKKMDSIHPLIKSKFGILEPNELAETVDKKVIDLLIVPGVAFNKDHYRIGFGGGFYDRFLTDFQGHTVSLYLYEQQIEFTPETHDEPVSILIGGLEHHHHHH | not soluble
